Experimental data from patent US20150125458A1 (Janssen / Centocor, published 2015).
Numbering of substitutions follows the chain as printed.

T1: human CCL17 (human, UniProt Q92583 24-94)
T1 construct: Biotinylated in the ELISA screens; also called huCCL17; Bt-huCCL17
T1 sequence: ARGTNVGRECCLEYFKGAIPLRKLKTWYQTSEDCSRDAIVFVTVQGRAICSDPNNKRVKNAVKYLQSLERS

T2: cyno CCL17 (Macaca fascicularis (cyno), UniProt Q8HYP9 24-94 (rhesus entry))
T2 construct: Biotinylated in the ELISA screens; also called cCCL17; Macaca fascicularis CCL17
T2 sequence: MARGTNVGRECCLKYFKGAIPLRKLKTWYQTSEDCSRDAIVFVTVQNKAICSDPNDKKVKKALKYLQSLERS

B1: C17F319 Fab variant W100a to F (Fab, V domains shown)
VH: EVQLVQSGAEVKKPGESLKISCKGSGYSFTSYWIGWVRQMPGKGLEWMGIIDPSDSDTRYSPSFQGQVTISADKSISTAYLQWSSLKASDTAMYYCARVGPADVFDSFDYWGQGTLVTVSS
VL: DIVMTQSPDSLAVSLGERATINCKSSQSVLLSPWNSNQLAWYQQKPGQPPKLLIYGASTRESGVPDRFSGSGSGTDFTLTISSLQAEDVAVYYCQQYYLIPSTFGQGTKVEIK
notes: also called W→F
B2: C17F319 Fab variant W100a to I (Fab, V domains shown)
VH: B1 VH with F105I
VL: B1 VL
notes: also called W→I
B3: C17F319 Fab variant W100a to Y (Fab, V domains shown)
VH: B1 VH with F105Y
VL: B1 VL
notes: also called W→Y
B4: C17F319 Fab variant W100a to R (Fab, V domains shown)
VH: B1 VH with F105R
VL: B1 VL
notes: also called W→R
B5: C17F319 Fab variant W100a to T (Fab, V domains shown)
VH: B1 VH with F105T
VL: B1 VL
notes: also called W→T

Target: T1, human CCL17
Assay: ranking Fab ELISA with bt-human and bt-cyno CCL17

| binding result | Binder |
| --- | --- |
| binds | B1 |
| binds | B2 |
| binds | B3 |

Target: T2, cyno CCL17
Assay: ranking Fab ELISA with bt-human and bt-cyno CCL17

| binding result | Binder |
| --- | --- |
| binds | B1 |
| binds | B4 |
| binds | B2 |
| binds | B5 |
| binds | B3 |
